Results from article doi:10.1101/430835 (bioRxiv, 2019).
Several values for one entry are separate records, joined by “and”; a condition that tells them apart may be missing. Equal values may be shown once.

B1: Uncoupling protein 2 (UCP2) (natural protein, human, UniProt P55851 1-309, looked up)
chain: MVGFKATDVPPTATVKFLGAGTAACIADLITFPLDTAKVRLQIQGESQGPVRATASAQYRGVMGTILTMVRTEGPRSLYNGLVAGLQRQMSFASVRIGLYDSVKQFYTKGSEHASIGSRLLAGSTTGALAVAVAQPTDVVKVRFQAQARAGGGRRYQSTVNAYKTIAREEGFRGLWKGTSPNVARNAIVNCAELVTYDLIKDALLKANLMTDDLPCHFTSAFGAGFCTTVIASPVDVVKTRYMNSALGQYSSAGHCALTMLQKEGPRAFYKGFMPSFLRLGSWNVVMFVTYEQLKRALMAACTSREAPF
B2: bovine ADP/ATP carrier protein isoform 1 (AAC1) (natural protein)
chain: SDQALSFLKDFLAGGVAAAISKTAVAPIERVKLLLQVQHASKQISAEKQYKGIIDCVVRIPKEQGFLSFWRGNLANVIRYFPTQALNFAFKDKYKQIFLGGVDRHKQFWRYFAGNLASGGAAGATSLCFVYPLDFARTRLAADVGKGAAQREFTGLGNCITKIFKSDGLRGLYQGFNVSVQGIIIYRAAYFGVYDTAKGMLPDPKNVHIIVSWMIAQTVTAVAGLVSYPFDTVRRRMMMQSGRKGADIMYTGTVDCWRKIAKDEGPKAFFKGAWSNVLRGMGGAFVLVLYDEIKKFV

Target: the molecule itself
Assay: native gel or EMSA

| Protein | stoichiometry N |
| --- | --- |
| B1 | 2 and 4 |
| B2 | 2 |
